Assay results published in patent US20250353917A1 (SYSTIMMUNE, published 2025).

What was measured:
[1] = molecular target: T1, soluble recombinant extracellular domain of human EGFR (human, UniProt P00533 25-645); test: BLI of scFv-monoFc proteins, against wild-type cetuximab scFv-monoFc
T1 construct: extracellular domain
Description: (§1) Fc-containing protein was captured to anti-human Fc (AHC) sensor tips by loading for 180 seconds at 10 μg/ml. Alternatively, His-tagged proteins were covalently coupled at 10 ug/ml to AR2G tips using manufacturer protocol. After a 60-second baseline step, a 180- to 300-second association phase with serial dilutions (0-200 nM; 1:2.5 dilution factor) or a single 100 nM concentration of purified human EGFR in assay buffer (phosphate-buffered saline containing 0.1% BSA, 0.05% Tween20) was performed, followed by a 300- to 600—second dissociation phase in assay buffer. Regeneration was achieved using 10 mM glycine, pH 1.5. Binding curves were globally fit to a 1:1 model to extract the dissociation constants, KD. Binding kinetics for each protein were assessed in duplicate, with tabulated values reported as average±standard deviation.
(§2) The monoFc domain was used to load proteins onto anti-human Fc (AHC) sensors, followed by binding of scFv to serial dilutions of the extracellular domain of human EGFR.

[2] = molecular target: T1, soluble recombinant extracellular …; test: BLI (Octet), scFv-monoFc on AHC sensors, serial dilutions of EGFR extracellular domain;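 also: EGFR analyte titrated 0 to 200 nM, association 180–300 s then dissociation 300–600 s in PBS with 0.1% BSA and 0.05% Tween20, global 1:1 fit, duplicate means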
Description: as §1, §2

Binder	fold decrease in binding affinity [1] [fold]	Kd [2] [nM]	koff [2] [s⁻¹]	kon [2] [M⁻¹ s⁻¹]
SI-79SF3 (Fc fusion, also called H1; H1 scFv-monoFc) EIVMTQSPSTLSASVGDRVIITCRASQSIGTNIHWYQQKPGKAPKLLIYYASESISGIPSRFSGSGSGAEFTLTISSLQPDDFATYYCQQNNNWPTTFGQGTKLTVLGGGGSGGGGSGGGGSGGGGSEVQLVESGGGLVQPGGSLRLSCKVSGFSLTNYGVHWVRQAPGKGLEWVGVIWSGGNTDYNTPFTSRFTISRDTSKNTVYLQMNSLRAEDTAVYYCARALTYYDYEFAYWGQGTLVTVSSGSGGSPVAGPSVFLFPPKPKDTLMISRTPEVTCVVVDVSHEDPEVKFNWYVDGVEVHNAKTKPREEQYASTYRVVSVLTVLHQDWLNGKEYKCKVSNKALPAPIEKTISKAKGQPREPQVYTLPPSRDELTKNQVSLRCHVKGFYPSDIAVEWESNGQPENNYKTTKPVLDSDGSFFLYSTLTVDKSRWQQGNVFSCSVLHEALHNHYTQKSLSLSPGK	4	13.1	0.00927	718000
SI-79SF9 (Fc fusion, also called H6; H6 scFv-monoFc) EIVLTQSPSTLSVSPGERVSFSCRASQSIGTNIHWYQQRTGQPPRLLIKYASESISGIPARFSGSGSGTEFTLTITSVQSEDFAVYYCQQNNNWPTTFGQGTKLDIKGGGGSGGGGSGGGGSGGGGSQVQLLQSGPGLVKPSETLSITCTVSGFSLTNYGVHWIRQAPGKGLEWIGVIWSGGNTDYNTPFTSRFTITKDNSKNQVFFKLRSVRAEDTALYYCARALTYYDYEFAYWGQGTLVTVSSGSGGSPVAGPSVFLFPPKPKDTLMISRTPEVTCVVVDVSHEDPEVKFNWYVDGVEVHNAKTKPREEQYASTYRVVSVLTVLHQDWLNGKEYKCKVSNKALPAPIEKTISKAKGQPREPQVYTLPPSRDELTKNQVSLRCHVKGFYPSDIAVEWESNGQPENNYKTTKPVLDSDGSFFLYSTLTVDKSRWQQGNVFSCSVLHEALHNHYTQKSLSLSPGK		3.42	0.00165	476000
SI-79SF4 (Fc fusion, also called H4; H4 scFv-monoFc) EIVLTQSPSTLSVSPGERATFSCRASQSIGTNIHWYQQKPGKPPRLLIKYASESISGIPDRFSGSGSGTEFTLTISSVQSEDFAVYYCQQNNNWPTTFGPGTKLELKGGGGSGGGGSGGGGSGGGGSQVQLQQSGPGLVKPSETLSITCTVSGFSLTNYGVHWIRQAPGKGLEWLGVIWSGGNTDYNTPFTSRFTITKDNSKNQVYFKLRSVRADDTAIYYCARALTYYDYEFAYWGQGTLVTVSSGSGGSPVAGPSVFLFPPKPKDTLMISRTPEVTCVVVDVSHEDPEVKFNWYVDGVEVHNAKTKPREEQYASTYRVVSVLTVLHQDWLNGKEYKCKVSNKALPAPIEKTISKAKGQPREPQVYTLPPSRDELTKNQVSLRCHVKGFYPSDIAVEWESNGQPENNYKTTKPVLDSDGSFFLYSTLTVDKSRWQQGNVFSCSVLHEALHNHYTQKSLSLSPGK		3.05	0.00139	450000
SI-79SF10 (Fc fusion, also called H3; H3 scFv-monoFc) EIVLTQSPSILSVSPGERVTFSCRASQSIGTNIHWYQQRPGKPPRLLIKYASESISGIPARFSGSGSGTEFTLTISSVQSEDFATYYCQQNNNWPTTFGPGTKLELKGGGGSGGGGSGGGGSGGGGSQVQLVQSGPGLVKPSQTLSLTCTVSGFSLTNYGVHWIRQAPGKGLEWLGVIWSGGNTDYNTPFTSRFTITKDNSKNQVYFKLRSVRSEDTAVYYCARALTYYDYEFAYWGQGTLVTVSSGSGGSPVAGPSVFLFPPKPKDTLMISRTPEVTCVVVDVSHEDPEVKFNWYVDGVEVHNAKTKPREEQYASTYRVVSVLTVLHQDWLNGKEYKCKVSNKALPAPIEKTISKAKGQPREPQVYTLPPSRDELTKNQVSLRCHVKGFYPSDIAVEWESNGQPENNYKTTKPVLDSDGSFFLYSTLTVDKSRWQQGNVFSCSVLHEALHNHYTQKSLSLSPGK		3.45	0.00177	504000
SI-79SF8 (Fc fusion, also called H10; H10 scFv-monoFc) DIVLTQSPATLSVSPGERATLSCRASQSIGTNIHWYQQKPGQAPRLLIKYASESISGIPSRFSGSGSGTDFTLTISSVQSEDFAVYYCQQNNNWPTTFGQGTKLEIKGGGGSGGGGSGGGGSGGGGSQVQLQESGPGLVKPSESLSLTCTVSGFSLTNYGVHWVRQPPGKGLEWIGVIWSGGNTDYNTPFTSRVTISKDNSKNQVSLKMNSLTAADTAVYYCARALTYYDYEFAYWGQGTLVTVSSGSGGSPVAGPSVFLFPPKPKDTLMISRTPEVTCVVVDVSHEDPEVKFNWYVDGVEVHNAKTKPREEQYASTYRVVSVLTVLHQDWLNGKEYKCKVSNKALPAPIEKTISKAKGQPREPQVYTLPPSRDELTKNQVSLRCHVKGFYPSDIAVEWESNGQPENNYKTTKPVLDSDGSFFLYSTLTVDKSRWQQGNVFSCSVLHEALHNHYTQKSLSLSPGK	2	6.77	0.00458	665000
SI-79SF13 (Fc fusion, also called H11; H11 scFv-monoFc) DIVLTQSPATLSVSPGERATLSCRASQSIGTNIHWYQQKPGQAPRLLIKYASESISGIPSRFSGSGSGTDFTLTISSVQSEDFAVYYCQQNNNWPTTFGQGTKLTVLGGGGSGGGGSGGGGSGGGGSQVQLQESGPGLVKPSESLSLTCTVSGFSLTNYGVHWVRQPPGKGLEWIGVIWSGGNTDYNTPFTSRVTISKDNSKNQVSLKMNSLTAADTAVYYCARALTYYDYEFAYWGQGTLVTVSSGSGGSPVAGPSVFLFPPKPKDTLMISRTPEVTCVVVDVSHEDPEVKFNWYVDGVEVHNAKTKPREEQYASTYRVVSVLTVLHQDWLNGKEYKCKVSNKALPAPIEKTISKAKGQPREPQVYTLPPSRDELTKNQVSLRCHVKGFYPSDIAVEWESNGQPENNYKTTKPVLDSDGSFFLYSTLTVDKSRWQQGNVFSCSVLHEALHNHYTQKSLSLSPGK	2	6.74	0.00454	661000
SI-79SF5 (Fc fusion, also called H8; H8 scFv-monoFc) DIVLTQSPSSLSVSPGERVTISCRASQSIGTNIHWYQQKPGQAPRLLIKYASESISGIPSRFSGSGSGTDFTLTISSVESEDFAVYYCQQNNNWPTTFGQGTKLEIKGGGGSGGGGSGGGGSGGGGSQVQLVESGPGLVQPSGSLSLTCTVSGFSLTNYGVHWVRQAPGKGLEWVGVIWSGGNTDYNTPFTSRFTISKDNSKNQVYLKMNSLRAEDTAVYYCARALTYYDYEFAYWGQGTLVTVSSGSGGSPVAGPSVFLFPPKPKDTLMISRTPEVTCVVVDVSHEDPEVKFNWYVDGVEVHNAKTKPREEQYASTYRVVSVLTVLHQDWLNGKEYKCKVSNKALPAPIEKTISKAKGQPREPQVYTLPPSRDELTKNQVSLRCHVKGFYPSDIAVEWESNGQPENNYKTTKPVLDSDGSFFLYSTLTVDKSRWQQGNVFSCSVLHEALHNHYTQKSLSLSPGK	2	6.79	0.00393	571000

Second part, the binder after the results:

fold decrease in binding affinity [1] [fold]	Kd [2] [nM]	koff [2] [s⁻¹]	kon [2] [M⁻¹ s⁻¹]	Binder
	3.08	0.00151	481000	SI-79SF12 (Fc fusion, also called H2; H2 scFv-monoFc) EIVLTQSPSILSVSPGERATFSCRASQSIGTNIHWYQQRPGKPPRLLIKYASESISGIPSRFSGSGSGTEFTLTITSVQSEDIAVYYCQQNNNWPTTFGPGTKLELKGGGGSGGGGSGGGGSGGGGSQVQLQQSGPGLVKPSQTLSITCTVSGFSLTNYGVHWIRQAPGKGLEWLGVIWSGGNTDYNTPFTSRFTISKDNSKNQVYFKLRSLRAEDTAIYYCARALTYYDYEFAYWGQGTLVTVSSGSGGSPVAGPSVFLFPPKPKDTLMISRTPEVTCVVVDVSHEDPEVKFNWYVDGVEVHNAKTKPREEQYASTYRVVSVLTVLHQDWLNGKEYKCKVSNKALPAPIEKTISKAKGQPREPQVYTLPPSRDELTKNQVSLRCHVKGFYPSDIAVEWESNGQPENNYKTTKPVLDSDGSFFLYSTLTVDKSRWQQGNVFSCSVLHEALHNHYTQKSLSLSPGK
	3.14	0.00143	447000	SI-79SF6 (Fc fusion, also called H7; H7 scFv-monoFc) EIVLTQSPSTLSVSPGERATFSCRASQSIGTNIHWYQQKPGKPPRLLIKYASESISGIPDRFSGSGSGTEFTLTISSVQSEDFAVYYCQQNNNWPTTFGPGTKLTVLGGGGSGGGGSGGGGSGGGGSQVQLQQSGPGLVKPSETLSITCTVSGFSLTNYGVHWIRQAPGKGLEWLGVIWSGGNTDYNTPFTSRFTITKDNSKNQVYFKLRSVRADDTAIYYCARALTYYDYEFAYWGQGTLVTVSSGSGGSPVAGPSVFLFPPKPKDTLMISRTPEVTCVVVDVSHEDPEVKFNWYVDGVEVHNAKTKPREEQYASTYRVVSVLTVLHQDWLNGKEYKCKVSNKALPAPIEKTISKAKGQPREPQVYTLPPSRDELTKNQVSLRCHVKGFYPSDIAVEWESNGQPENNYKTTKPVLDSDGSFFLYSTLTVDKSRWQQGNVFSCSVLHEALHNHYTQKSLSLSPGK
	2.27	0.0011	474000	SI-79SF11 (Fc fusion, also called H5; H5 scFv-monoFc) EIQLTQSPSTLSVSPGERATFSCRASQSIGTNIHWYQQKTGQPPRLLIKYASESISGIPDRFSGSGSGTEFTLSITSVQSEDFAVYYCQQNNNWPTTFGPGTKLEILGGGGSGGGGSGGGGSGGGGSQVQLLQSGPGLVKPSETLSLTCTVSGFSLTNYGVHWIRQAPGKGLEWIGVIWSGGNTDYNTPFTSRFTISKDNSKNQVYFKLRSLTSEDTAIYYCARALTYYDYEFAYWGQGTLVTVSSGSGGSPVAGPSVFLFPPKPKDTLMISRTPEVTCVVVDVSHEDPEVKFNWYVDGVEVHNAKTKPREEQYASTYRVVSVLTVLHQDWLNGKEYKCKVSNKALPAPIEKTISKAKGQPREPQVYTLPPSRDELTKNQVSLRCHVKGFYPSDIAVEWESNGQPENNYKTTKPVLDSDGSFFLYSTLTVDKSRWQQGNVFSCSVLHEALHNHYTQKSLSLSPGK
2	6.92	0.00395	563000	SI-79SF7 (Fc fusion, also called H9; H9 scFv-monoFc) DIVLTQSPSSLSVSPGERVTISCRASQSIGTNIHWYQQKPGQAPRLLIKYASESISGIPSRFSGSGSGTDFTLTISSVESEDFAVYYCQQNNNWPTTFGQGTKLTVLGGGGSGGGGSGGGGSGGGGSQVQLVESGPGLVQPSGSLSLTCTVSGFSLTNYGVHWVRQAPGKGLEWVGVIWSGGNTDYNTPFTSRFTISKDNSKNQVYLKMNSLRAEDTAVYYCARALTYYDYEFAYWGQGTLVTVSSGSGGSPVAGPSVFLFPPKPKDTLMISRTPEVTCVVVDVSHEDPEVKFNWYVDGVEVHNAKTKPREEQYASTYRVVSVLTVLHQDWLNGKEYKCKVSNKALPAPIEKTISKAKGQPREPQVYTLPPSRDELTKNQVSLRCHVKGFYPSDIAVEWESNGQPENNYKTTKPVLDSDGSFFLYSTLTVDKSRWQQGNVFSCSVLHEALHNHYTQKSLSLSPGK
